The results in this text go back to the supplement of paper PMC10567573.

± gives the standard deviation.

This data set can be described thus: protein stability index of a GFP-peptide fusion (GPS, HEK-293T) (PSI 1-6); higher = more stable. The conditions noted are these: c terminus: a fixed tail appended.
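Further: 24-mer peptide tiles fused after GFP, lentivirally expressed, FACS-sorted into six equal bins by GFP/DsRed ratio, decoded by Illumina sequencing, PSI is the read-weighted mean bin number.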

For SLLRGFLLQNEFVGFMWRQRGRVI [MCOLN1], the protein stability index by setting is: (treatment: DMSO) 2.29 ± 0.2; (treatment: MLN4924 1 uM, 8 h) 2.13 ± 0.2.

For LLYDDLYDDDIDDEDEEEEDADCY [UBE2R2], the protein stability index runs as follows: (treatment: DMSO) 4.26 ± 0.18; (treatment: MLN4924 1 uM, 8 h) 4.41 ± 0.27.

In the case of NKLQYHAGLASGLLNQQSLKRSAN [MED27], the protein stability index runs as follows: (treatment: DMSO) 3.47 ± 0.25; (treatment: MLN4924 1 uM, 8 h) 3.51 ± 0.29.

For RNGLHLPEQVQNEIKSMKKRMSEL [NLN], the protein stability index by setting is: (treatment: DMSO) 4.11 ± 0.33; (treatment: MLN4924 1 uM, 8 h) 4.4 ± 0.31.

As for MSEWSECTAKCGERSVVTRDIRCS [ADAMTSL2], the protein stability index reads like this: (treatment: DMSO) 3.87 ± 0.45; (treatment: MLN4924 1 uM, 8 h) 3.74 ± 0.051.

Turning to WWALSTCGYFQVVNYTQGLWEKVM [SLC19A2], the protein stability index by setting is: (treatment: DMSO) 2.75 ± 1.3; (treatment: MLN4924 1 uM, 8 h) 2.45 ± 0.73.

For the sequence PVRPVSRGCLHSHGLQEGKDLFTQ [CDC25A], the protein stability index was found to be 3.15 ± 0.33 (treatment: DMSO) and 3.21 ± 0.13 (treatment: MLN4924 1 uM, 8 h).

The sequence HGDYFRLLLPGIYTVSATAPGYDP [CPN1] showed a protein stability index (treatment: DMSO) of 2.78 ± 0.71 and a protein stability index (treatment: MLN4924 1 uM, 8 h) of 2.48 ± 0.48.

Turning to QPSFPEILLESHMVMIRGNSGLKP [POMT2], the protein stability index was 2.79 ± 0.3 (treatment: DMSO) and 3.07 ± 0.21 (treatment: MLN4924 1 uM, 8 h).

For KFSIPDLDRHQLPLDDALLSFAHA [DPCD], the protein stability index was 2.84 ± 0.21 (treatment: DMSO) and 2.94 ± 0.35 (treatment: MLN4924 1 uM, 8 h).

In the case of KQSFLDGGKGHHLPSENLGKEPLD [TOR1AIP2], the protein stability index runs as follows: (treatment: DMSO) 5.13 ± 0.11; (treatment: MLN4924 1 uM, 8 h) 5.01 ± 0.21.

QALQAKASLTIPLVPETEDDRKLA [YJU2B]: the protein stability index is 5.16 ± 0.24 (treatment: DMSO) and 5.24 ± 0.11 (treatment: MLN4924 1 uM, 8 h).

AATTSKEQEPIGTDLDAVRTPEPL [MYBL2]: the protein stability index was determined as 5.46 ± 0.3 (treatment: DMSO) and 5.41 ± 0.25 (treatment: MLN4924 1 uM, 8 h).

Consider VDQYLALPDVSLGRYAYVRGGGDP [MCOLN1], for which the protein stability index runs as follows: (treatment: DMSO) 3.19 ± 0.26; (treatment: MLN4924 1 uM, 8 h) 3.03 ± 0.4.

Regarding YTEGISQRMRVPEKLKVAPPNADL [MFF], the protein stability index is 3.28 ± 0.4 (treatment: DMSO) and 3.75 ± 0.32 (treatment: MLN4924 1 uM, 8 h).

Turning to RTPLHYAAANCHFHCIETLVTTGA [ANKRD44], the protein stability index was 2.36 ± 0.57 (treatment: DMSO) and 2.44 ± 0.5 (treatment: MLN4924 1 uM, 8 h).

In the case of ELDGPKQIFFGRRKDMIAEKLAPS [ZNF396], the protein stability index (treatment: DMSO) is 3.62 ± 0.11 and the protein stability index (treatment: MLN4924 1 uM, 8 h) amounted to 3.62 ± 0.27.

For FKDKLEETKGQINNSIKDLTDGHF [SERPINB5], the protein stability index came out at 4.42 ± 0.2 (treatment: DMSO) and 4.5 ± 0.2 (treatment: MLN4924 1 uM, 8 h).

In the case of TKKLRLTKPSKSAALHIDLCKATS [INTS4], the protein stability index was found to be 2.91 ± 0.17 (treatment: DMSO) and 3.13 ± 0.22 (treatment: MLN4924 1 uM, 8 h).

As for SCSLVLEHQPDNIKALFRKGKVLA [FKBP8], the protein stability index by setting is: (treatment: DMSO) 2.76 ± 0.15; (treatment: MLN4924 1 uM, 8 h) 2.68 ± 0.26.

Take PDDFVPPVPPPSYFATFYSCTPRM [FAM189A2]: the protein stability index by setting is: (treatment: DMSO) 2.65 ± 0.15; (treatment: MLN4924 1 uM, 8 h) 2.7 ± 0.32.

For the sequence YSGQITLLKLEQNTCSVITTLKGH [WDFY1], the protein stability index came to 2.82 ± 0.67 (treatment: DMSO) and 2.38 ± 0.36 (treatment: MLN4924 1 uM, 8 h).

Turning to HWATGYSKSSHPLIRSLFHGFLFM [SOAT1], the protein stability index was found to be 2.86 ± 0.7 (treatment: DMSO) and 2.49 ± 0.56 (treatment: MLN4924 1 uM, 8 h).

As to GNIKGIEGHSPGNLPKFCHECGTK [ZC2HC1A], the protein stability index turned out to be 3.82 ± 0.52 (treatment: DMSO) and 4.59 ± 0.085 (treatment: MLN4924 1 uM, 8 h).

Take ESGEHFRSLLGYDPQILQMLKEEH [RAD54B]: the protein stability index reads like this: (treatment: DMSO) 3.77 ± 0.35; (treatment: MLN4924 1 uM, 8 h) 3.56 ± 0.55.

IRLQAELEEGENPVPAFQSDGTDE [SMG5]: the protein stability index is 5.27 ± 0.14 (treatment: DMSO) and 5.12 ± 0.23 (treatment: MLN4924 1 uM, 8 h).

Regarding ARKRKNRRLKQAKEEAQAEIEQYR [ATP6V1G1], the protein stability index is 5.03 ± 0.38 (treatment: DMSO) and 5.13 ± 0.32 (treatment: MLN4924 1 uM, 8 h).

Take LTGTARYMSINTHLGKEQSRRDDL [CSNK1G1]: the protein stability index is, setting by setting: (treatment: DMSO) 3.9 ± 0.31; (treatment: MLN4924 1 uM, 8 h) 4.02 ± 0.46.

For the sequence AGKQRMKEKEQENERKVAQLAEEN [DDIT3], the protein stability index (treatment: DMSO) came to 5.29 ± 0.41 and the protein stability index (treatment: MLN4924 1 uM, 8 h) turned out to be 5.49 ± 0.43.
